Data on 10 variants can be found in IntAct's records for PubMed 25502805.

B1: Mothers against decapentaplegic homolog 4 (Homo sapiens), Q13485 (parent)
chain: MDNMSITNTPTSNDACLSIVHSLMCHRQGGESETFAKRAIESLVKKLKEKKDELDSLITAITTNGAHPSKCVTIQRTLDGRLQVAGRKGFPHVIYARLWRWPDLHKNELKHVKYCQYAFDLKCDSVCVNPYHYERVVSPGIDLSGLTLQSNAPSSMMVKDEYVHDFEGQPSLSTEGHSIQTIQHPPSNRASTETYSTPALLAPSESNATSTANFPNIPVASTSQPASILGGSHSEGLLQIASGPQPGQQQNGFTGQPATYHHNSTTTWTGSRTAPYTPNLPHHQNGHLQHHPPMPPHPGHYWPVHNELAFQPPISNHPAPEYWCSIAYFEMDVQVGETFKVPSSCPIVTVDGYVDPSGGDRFCLGQLSNVHRTEAIERARLHIGKGVQLECKGEGDVWVRCLSDHAVFVQSYYLDREAGRAPGDAVHKIYPSAYIKVFDLRQCHRQMQQQAATAQAAAAAQAAAVAGNIPGPGSVGGIAPAISLSAAAGIGVDDLRRLCILRMSFVKGWGPDYPRQSIKETPCWIEIHLHRALQLLDEVLHTMPIADPQPLD
partner: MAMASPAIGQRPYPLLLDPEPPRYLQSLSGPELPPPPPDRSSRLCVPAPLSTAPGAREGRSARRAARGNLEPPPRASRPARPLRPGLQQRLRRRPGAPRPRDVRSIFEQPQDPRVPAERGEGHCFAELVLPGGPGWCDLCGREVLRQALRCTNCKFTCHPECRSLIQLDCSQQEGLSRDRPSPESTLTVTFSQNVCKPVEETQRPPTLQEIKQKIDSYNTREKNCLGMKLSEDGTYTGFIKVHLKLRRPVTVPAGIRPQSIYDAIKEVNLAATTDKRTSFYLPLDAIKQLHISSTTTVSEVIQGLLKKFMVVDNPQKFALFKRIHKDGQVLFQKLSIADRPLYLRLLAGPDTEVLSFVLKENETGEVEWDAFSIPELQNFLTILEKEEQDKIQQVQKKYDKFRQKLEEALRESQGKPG
B2: Mothers against decapentaplegic homolog 4 (Homo sapiens), Q13485 (parent)
chain: B1 chain
partner: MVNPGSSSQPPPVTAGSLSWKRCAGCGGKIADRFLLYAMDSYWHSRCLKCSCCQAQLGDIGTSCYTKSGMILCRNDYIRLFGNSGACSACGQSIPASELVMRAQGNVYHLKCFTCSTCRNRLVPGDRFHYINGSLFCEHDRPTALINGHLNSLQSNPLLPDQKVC
B3: Scaffold protein ILK (Homo sapiens), Q13418 (parent)
chain: MDDIFTQCREGNAVAVRLWLDNTENDLNQGDDHGFSPLHWACREGRSAVVEMLIMRGARINVMNRGDDTPLHLAASHGHRDIVQKLLQYKADINAVNEHGNVPLHYACFWGQDQVAEDLVANGALVSICNKYGEMPVDKAKAPLRELLRERAEKMGQNLNRIPYKDTFWKGTTRTRPRNGTLNKHSGIDFKQLNFLTKLNENHSGELWKGRWQGNDIVVKVLKVRDWSTRKSRDFNEECPRLRIFSHPNVLPVLGACQSPPAPHPTLITHWMPYGSLYNVLHEGTNFVVDQSQAVKFALDMARGMAFLHTLEPLIPRHALNSRSVMIDEDMTARISMADVKFSFQCPGRMYAPAWVAPEALQKKPEDTNRRSADMWSFAVLLWELVTREVPFADLSNMEIGMKVALEGLRPTIPPGISPHVCKLMKICMNEDPAKRPKFDMIVPILEKMQDK
partner: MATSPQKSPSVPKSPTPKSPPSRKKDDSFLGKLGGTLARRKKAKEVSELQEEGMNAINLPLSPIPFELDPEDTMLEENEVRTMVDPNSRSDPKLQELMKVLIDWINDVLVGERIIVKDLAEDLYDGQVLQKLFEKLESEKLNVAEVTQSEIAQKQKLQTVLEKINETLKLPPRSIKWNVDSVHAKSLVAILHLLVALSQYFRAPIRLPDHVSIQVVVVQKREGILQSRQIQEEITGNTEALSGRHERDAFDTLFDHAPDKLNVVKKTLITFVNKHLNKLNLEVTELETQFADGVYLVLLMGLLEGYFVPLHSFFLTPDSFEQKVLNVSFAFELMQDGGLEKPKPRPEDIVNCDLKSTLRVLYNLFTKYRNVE
B4: DNA mismatch repair protein Mlh1 (Homo sapiens), P40692 (parent)
chain: MSFVAGVIRRLDETVVNRIAAGEVIQRPANAIKEMIENCLDAKSTSIQVIVKEGGLKLIQIQDNGTGIRKEDLDIVCERFTTSKLQSFEDLASISTYGFRGEALASISHVAHVTITTKTADGKCAYRASYSDGKLKAPPKPCAGNQGTQITVEDLFYNIATRRKALKNPSEEYGKILEVVGRYSVHNAGISFSVKKQGETVADVRTLPNASTVDNIRSIFGNAVSRELIEIGCEDKTLAFKMNGYISNANYSVKKCIFLLFINHRLVESTSLRKAIETVYAAYLPKNTHPFLYLSLEISPQNVDVNVHPTKHEVHFLHEESILERVQQHIESKLLGSNSSRMYFTQTLLPGLAGPSGEMVKSTTSLTSSSTSGSSDKVYAHQMVRTDSREQKLDAFLQPLSKPLSSQPQAIVTEDKTDISSGRARQQDEEMLELPAPAEVAAKNQSLEGDTTKGTSEMSEKRGPTSSNPRKRHREDSDVEMVEDDSRKEMTAACTPRRRIINLTSVLSLQEEINEQGHEVLREMLHNHSFVGCVNPQWALAQHQTKLYLLNTTKLSEELFYQILIYDFANFGVLRLSEPAPLFDLAMLALDSPESGWTEEDGPKEGLAEYIVEFLKKKAEMLADYFSLEIDEEGNLIGLPLLIDNYVPPLEGLPIFILRLATEVNWDEEKECFESLSKECAMFYSIRKQYISEESTLSGQQSEVPGSIPNSWKWTVEHIVYKALRSHILPPKHFTEDGNILQLANLPDLYKVFERC
B5: pre-mRNA splicing regulator USH1G (Homo sapiens), Q495M9 (parent)
chain: MNDQYHRAARDGYLELLKEATRKELNAPDEDGMTPTLWAAYHGNLESLRLIVSRGGDPDKCDIWGNTPLHLAASNGHLHCLSFLVSFGANIWCLDNDYHTPLDMAAMKGHMECVRYLDSIAAKQSSLNPKLVGKLKDKAFREAERRIRECAKLQRRHHERMERRYRRELAERSDTLSFSSLTSSTLSRRLQHLALGSHLPYSQATLHGTARGKTKMQKKLERRKQGGEGTFKVSEDGRKSARSLSGLQLGSDVMFVRQGTYANPKEWGRAPLRDMFLSDEDSVSRATLAAEPAHSEVSTDSGHDSLFTRPGLGTMVFRRNYLSSGLHGLGREDGGLDGVGAPRGRLQSSPSLDDDSLGSANSLQDRSCGEELPWDELDLGLDEDLEPETSPLETFLASLHMEDFAALLRQEKIDLEALMLCSDLDLRSISVPLGPRKKILGAVRRRRQAMERPPALEDTEL
partner: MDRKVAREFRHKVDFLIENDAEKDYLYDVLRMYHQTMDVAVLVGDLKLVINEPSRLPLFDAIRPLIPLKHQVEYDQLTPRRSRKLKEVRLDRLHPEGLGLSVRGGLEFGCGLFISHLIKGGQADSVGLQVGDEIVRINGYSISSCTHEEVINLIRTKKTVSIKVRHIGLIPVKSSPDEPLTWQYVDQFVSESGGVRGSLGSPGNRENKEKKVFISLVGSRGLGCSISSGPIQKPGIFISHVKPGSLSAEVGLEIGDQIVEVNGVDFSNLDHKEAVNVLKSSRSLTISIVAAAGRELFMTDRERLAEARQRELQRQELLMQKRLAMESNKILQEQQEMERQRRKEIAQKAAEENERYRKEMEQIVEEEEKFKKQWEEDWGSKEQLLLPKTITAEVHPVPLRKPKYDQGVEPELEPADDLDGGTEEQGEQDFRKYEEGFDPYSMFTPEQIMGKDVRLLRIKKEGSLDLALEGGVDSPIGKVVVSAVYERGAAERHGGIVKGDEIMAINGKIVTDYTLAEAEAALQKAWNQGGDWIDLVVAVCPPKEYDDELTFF

One assay covers variants of B1. The conditions noted are these: with rasf5_human RASSF5, Q8WWW0.
For N13S, the “effect of a mutation on the interaction” value is “with no effect”. For Y353S, the “effect of a mutation on the interaction” value is “with no effect”.

Take R361C: the “effect of a mutation on the interaction” value was “with no effect”.

Another assay covers variants of B2. The conditions noted are these: with lmo4_human LMO4, P61968.
On to N13S, for which the “effect of a mutation on the interaction” value is reported as “with no effect”.

Turning to R361C, the “effect of a mutation on the interaction” value was “with no effect”. The same measure, in the same setting: to Y353S belongs “with no effect”.

Variants of B3 are the subject of a further assay. Conditions: with parva_human PARVA.
With A262V, the “effect of a mutation on the interaction” value is “with no effect”.

Variants of B4 are the subject of the next assay. The conditions noted are these: with hsp7c_human HSPA8, P11142.
With I107R, the “effect of a mutation on the interaction” value is given as “increasing interaction strength”.

The variants in the next assay derive from B5. Conditions: with ush1c_human USH1C.
As to L16V, the “effect of a mutation on the interaction” value is reported as “with no effect”.

With L48P, the “effect of a mutation on the interaction” value was “with no effect”.
